In the DeepSol protein solubility set:

test: soluble on expression in E. coli; label from the status in PepcDB or PDB records

Soluble on expression in E. coli, not soluble:
GPGSMGQSIGDRLQNLVLRDEERARLLSLQNTKSILPSLAPSRRLLLVHAIMTLVVPYVTRKVQRKVLEEGWEREPVPTARYRIAKALRYAVVTWSLLSLANTFNFLMTGRYRTLVERILSLRLVYGSQRMMRFTNLLYMNQHVQWQTWMSLFSALSLGR
GSFTRFDLAIDDKKTYFSIPELLKKAQKGECISRFRKSDFNGSFDLSDGITGGTTIYFGSKKSEAYLCFYEKNYEQAEKYNIPLEELGDWNRYELRLKNERAQVAIDALLKTKDLTLIAMQIINNYVRFVDADENITREHWKTSLFWSDFIGDVGRLPLYVKPQKDFYQKSRNWLRNSCAPTMKMVLEADEHLGKTDLSDMIAEAELADKHKKMLDVYMADVADMVV
MTPFAEAVRQLRERKGVTQKEMAAAIGVSPAYLSALEHGKRGKPSFDLLQRIAGYFNIIWDEAEELFFLAGSSDPKVVIDTVGLPPQYTAFANRLARDIRKLPPSVVEELSAVLQKSRSCD
MLNTRLELNKRIDNNVQLKYTEQKIFGNSKEIIGCEVLLDFEYAKKNQVAWKYLTMMHNGASLLSLIVYVNESILRYVKSNINKVFINVERISLCNSRHVGLITRLNEKMSEHNISLIVEITERGSDIPFVEIKNGLKSLQCSHVKLAMDDYDYKKTDFRSDEIFDYDYIKVDFPKTKAELDSFNNFVFLTSMFTCLIVERIENENDFFSVKNNRIWGYQGFAFCQKESFEGWSDNTSDNNVF
MGSDKIHHHHHHMKVTILLPAYNAALYLRDSLDSIMRQAFKDFDVLLIDDGSMDDTSKIAIEYSNIDRRIKYYKNEKNIGLIKTLNKGLSLAKGEYIVRMDADDIMFDDRLYKQVKYMDSNPECFVCGGQMEYIGGLTGMAPILPQKYEDLLYLSLINCPLYHPTTIIRNSAIKQFGLKYNDSYKHAEDYKFWSDIIFSHPNSIANIKDVVLFYRISNNQITAKYSDEQDLISKIVRRENVQHVLVPYGIKLPEVVNCEIIEKVSSLIRKEHIDAAEILTLVLCMLYMSMENSYVRIKHFILSNDYSLFVKNSSRIKLGLSVLLSGIFSNRGKRFVI
MGSDKIHHHHHHLAAEIIAVTQQKGGVGKSTIAMHLGAAFHEKGKRVLVVDADGQNTLIHWASASSDGDTGIPFPVVNLSEAGSQIHREIKKFVADYDIIVVDCPPSITEKVSGVVLLAASVAVIPTSSSPADYWSSIGLVKLVQQAQLMNEDLRAVFLLNKTEEKRMLTRELKRALEELGFPLLKTQIPTREAYKQAMALGQTVLQMNDRGAKLAAIEVRACANEIAALLP
MVTNRVVFLTGAASGIGYEMGNTFAKEGAKVVITDRLEERAKEAAEQLQKEGFQAIGLKCDVTSEEEIEASISQTVNHFGSLDILINNAGMQHVSPIEDFPTEKFELLIKIMQIAPFIAIKHAFPIMKKQKYGRIINVASINGLVGFAGKAAYNSAKHGVIGLTKVAALEGATHGITVNALCPGYVDTPLVRNQLQDLATTRNVPLENVLEDVIYPLVPQKRLLQVQEIADYAMFLASEKAKGITGQAVVIDGGYTAQ
NDKYMLLVFGRNGCSYCERFKKDLKNVKELRDYIKEHFSAYYVNISYSKEHDFKVGDKNNEKEIKMSTEELAQIYAVQSTPTIVLSDKTGKTIYELPGYMPSTQFLAVLEFIGDGKYQDTKDDEDLTKKLKAYIKYKTNLSKSKSN
MFTRQAGHFVEGSKAGRSRGRLCLSQALRVAVRGAFVSLWFAAGAGDRERNKGDKGAQTGAGLSQEAEDVDVSRARRVTDAPQGTLCGTGNRNSGSQSARAVGVAHLGEAFRVGVEQAISSCPEEVHGRHGLSMEIMWAQMDVALRSPGRGLLAGAGALCMTLAESSCPDYERGRRACLTLHRHPTPHCSTWGLPLRVAGSWLTVVTVEALGRWRMGVRRTGQVGPTMHPPPVSGASPLLLHHLLLLLLIIILTC
MNDDKLRSLFASLATLTQQGPIPVQAYSMLAGQHSTEVLAEHMRLRWLSDGRFGPVAANILMHIHKSDPKDISLSSNVLALLLNDYRNRLSVRNDSRLMFRNCVKTLFSMYPVYVKMDECVSKCFIKPMFSSLDALIDDAPDTEDLETAGILLSENGRVLHDLNSYLVERIIVKLRHKLISEDPIVTKHVRQIFIHVYDLWAFGWSELNIPECLLTLSAEGKLSIVDQTPLRKNDISKQEFGSKESIV

Soluble on expression in E. coli, soluble:
GHHHHHHMTTQLEQAWELAKQRFAAVGIDVEEALRQLDRLPVSMHCWQGDDVSGFENPEGSLTGGIQATGNYPGKARNASELRADLEQAMRLIPGPKRLNLHAIYLESDTPVSRDQIKPEHFKNWVEWAKANQLGLDFNPSCFSHPLSADGFTLSHADDSIRQFWIDHCKASRRVSAYFGEQLGTPSVMNIWIPDGMKDITVDRLAPRQRLLAALDEVISEKLNPAHHIDAVESKLFGIGAESYTVGSNEFYMGYATSRQTALCLDAGHFHPTEVISDKISAAMLYVPQLLLHVSRPVRWDSDHVVLLDDETQAIASEIVRHDLFDRVHIGLDFFDASINRIAAWVIGTRNMKKALLRALLEPTAELRKLEAPGDYTARLALLEEQKSLPWQAVWEMYCQRHDTPAGSEWLESVRAYEKEILSRRG
MGKLLTMAMPKGRIFEEAAGLLRQAGYRLPEEFEDSRKLIIDVPEENLRFILAKPMDVTTYVEHGVADVGIAGKDVMLEEERDVYEVLDLNISKCHLAVAGLPNTDWSGVAPRIATKYPNVASSYFREQGEQVEIIKLNGSIELAPLIGLADRIVDIVSTGQTLKENGLVETEHICDITSRFIVNPVSYRMKDDVIDEMASRLSLVVEGETAKLEHHHHHH
MKYNATKAISIAPPTIPTVNPTINEVFSFELLELELEEEEDKLLSCESDCFAQYVDGHLSHVNEVITQYSPEAQTGHDAVESQTTHPSLPLVAEVEEVAVLDKDELAEALEELDIFCLIFRKRT
SNAEQVRQAGIDDIGGILELIHPLEEQGILVRRSREQLEQEIGKFTIIEKDGLIIGCAALYPYSEERKAEMACVAIHPDYRDGNRGLLLLNYMKHRSKSENINQIFVLTTHSLHWFREQGFYEVGVDYLPGAKQGLYNFQRKSKILALDL
MTVDSIPLNTGAQLPLFGLGTWQVKDEAELTVALRAALDAGYRLIDTAHLYQNEHIIGKVLHEYISSGKLKREDIFVTSKLPFTAHAPEDVPKCVESQLKALQLEYIDLYLIHCPFPFKHQEGSFAPLMENGELAVTEIAHIDTWRALEKLYKEGKLKALGVSNFSCNQLQALYDAAEVKPANQQVECHIYWPQQELRALCKKLGVTVTAYAPLGSPGRKAARPDGVWPEGDPLLEPIVKQLAAKYHKTAAQILIRHLTQHGISTIPKSVSPDRIVENISTFDFKLSDEDMHTLNSIETRTRLFIADFAVKHPFFPHDDIDTSKVPKVGIRLH
MSLKNNEVAFYAMGGLGEIGKNMYCVQFQDEIIVIDCGVLFPEDELLGVDYVIQNYDYLIENKDKIKGIFITHGHEDHIGGLPFFLQKVNAPIYAGPFAMSLIKGKLEEKHLLRNAELHEINEFDEVHFKKLWVSFFRTTHSIPDTLGVAVHTPQGTIVQTGDFKFDLTPVGNLPGPNLQQMAKLGDDGVLLLTSDSTNAERPEFTKSERWVDIHIRRIFERIKGRIIFASFASNVYRLREASDAAIAQGRKIAVFGRSMENAITAGQELGYLNIPKDSLIDQNEINNYPPEKVLIMCTGSQGEPMAALSRIANGTHRQITIQPEDTVVFSSNPIPGNTTSVNALINKLEESGANVIHGYVNNIHTSGHGGQVDEEFMLRLMKPKFFAPVHGEYRMQKIHTKLAEMTGVPKENSFVLANGDVLALTKDSCRVADHIDSVSDVYIDGRDAGDTVGNPEIRERRLLSEEGVVTAIAVVDLKDYQIVAGPDIVSRGFVYMHESQELIKAANHEVFWAILNTFKNHKHIDQRVLNRTIISRLQKLLYDRTGRRPVIIPMVTILNGEGHHHHHH
